Consider one protein from publication doi:10.1101/2024.06.20.599867 (bioRxiv, 2024).

This series concerns the molecule itself. Description: cryo-EM structure.

B1: ABC transporter MsbA (His-tagged, E. coli) (natural protein)
chain: MHNDKDLSTWQTFRRLWPTIAPFKAGLIVAGVALILNAASDTFMLSLLKPLLDDGFGKTDRSVLVWMPLVVIGLMILRGITSYVSSYCISWVSGKVVMTMRRRLFGHMMGMPVSFFDKQSTGTLLSRITYDSEQVASSSSGALITVVREGASIIGLFIMMFYYSWQLSIILIVLAPIVSIAIRVVSKRFRNISKNMQNTMGQVTTSAEQMLKGHKEVLIFGGQEVETKRFDKVSNRMRLQGMKMVSASSISDPIIQLIASLALAFVLYAASFPSVMDSLTAGTITVVFSSMIALMRPLKSLTNVNAQFQRGMAACQTLFTILDSEQEKDEGKRVIERATGDVEFRNVTFTYPGRDVPALRNINLKIPAGKTVALVGRSGSGKSTIASLITRFYDIDEGEILMDGHDLREYTLASLRNQVALVSQNVHLFNDTVANNIAYARTEQYSREQIEEAARMAYAMDFINKMDNGLDTVIGENGVLLSGGQRQRIAIARALLRDSPILILDEATSALDTESERAIQAALDELQKNRTSLVIAHRLSTIEKADEIVVVEDGVIVERGTHNDLLEHRGVYAQLHKMQFGQ
As for B1, the binding result was “binds”.
